# Laboratory results from patent publication US20100092465A1, “TREATMENT OF GRAFT-VERSUS-HOST DISEASE” (priority 2006, published 2010).
# “And” between values parts separate entries of the source, which are not always exact repeats. Equal values may be shown once.
# How the values were obtained:
# [1] = molecular target: single-chain mouse IL-27 (FLAG tag, mouse EBI3, 17 amino acid linker, mouse IL-27 p28) (mouse) (UniProt O35228); assay: SPR, BIACORE 3000; receptor captured by anti-mouse Fc antibody, ligand (lot A1418F) injected; 1:1 model with mass transport
# [2] = molecular target: single-chain mouse IL-27 (FLAG tag, mouse EBI3, 17 amino acid linker, mouse IL-27 p28) (mouse) (UniProt O35228); assay: cell-based or functional assay
# [3] = molecular target: single-chain human IL-27 (amino-terminal peptide tag, EBI3, polypeptide linker, IL-27 p28) (human) (UniProt Q14213); assay: cell-based or functional assay
# [4] = molecular target: single-chain human IL-27 (amino-terminal peptide tag, EBI3, polypeptide linker, IL-27 p28) (human) (UniProt Q14213); assay: SPR, BIACORE 3000; receptor amine-coupled to the chip, ligand (A1534F) injected; 1:1 model with mass transport
# [5] = molecular target: single-chain mouse IL-27 (FLAG tag, mouse EBI3, 17 amino acid linker, mouse IL-27 p28) (mouse) (UniProt O35228); assay: SPR, BIACORE 3000; receptor amine-coupled to the chip, ligand (A1426F) injected; 1:1 model with mass transport
# [6] = molecular target: IL-27 receptor on total human PBMCs (human) (UniProt Q6UWB1); assay: cell-based or functional assay
# [7] = molecular target: IL-27 receptor on mouse spleen cells (mouse) (UniProt O70394); assay: cell-based or functional assay
# [8] = molecular target: IL-27 receptor (IL-27RA and gp130) on BHK-mIL-27R cells (mouse) (UniProt O70394); assay: saturation binding of 125I-labeled ligand to BHK-mIL-27R cells, 4 hours on ice, gamma counter
# [9] = molecular target: IL-27 receptor (IL-27RA and gp130) on BHK-mIL-27R cells (mouse) (UniProt O70394); assay: saturation binding of 125I-labeled ligand to BHK-mIL-27R cells; average of three studies
# Chain of IL-27 receptor on total human PBMCs (human) (Q6UWB1 33-636, chain 1 of 2): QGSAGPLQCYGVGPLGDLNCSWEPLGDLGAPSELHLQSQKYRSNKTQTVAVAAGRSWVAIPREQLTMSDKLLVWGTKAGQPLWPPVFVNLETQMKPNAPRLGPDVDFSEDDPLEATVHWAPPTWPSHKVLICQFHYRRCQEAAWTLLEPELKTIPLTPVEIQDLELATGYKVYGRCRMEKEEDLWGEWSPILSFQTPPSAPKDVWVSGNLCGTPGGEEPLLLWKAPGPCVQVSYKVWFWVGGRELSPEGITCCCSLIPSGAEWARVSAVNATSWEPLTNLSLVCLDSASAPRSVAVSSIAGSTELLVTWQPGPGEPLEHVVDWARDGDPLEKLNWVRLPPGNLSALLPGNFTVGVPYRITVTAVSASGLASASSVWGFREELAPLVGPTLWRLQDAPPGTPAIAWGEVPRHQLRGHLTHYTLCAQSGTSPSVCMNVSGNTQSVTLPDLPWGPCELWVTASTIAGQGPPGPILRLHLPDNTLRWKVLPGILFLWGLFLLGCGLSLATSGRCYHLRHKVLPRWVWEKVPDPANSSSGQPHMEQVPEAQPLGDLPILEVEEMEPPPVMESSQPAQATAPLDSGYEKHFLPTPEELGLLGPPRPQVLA
# Chain of IL-27 receptor on total human PBMCs (human) (P40189 23-918, chain 2 of 2, further chain): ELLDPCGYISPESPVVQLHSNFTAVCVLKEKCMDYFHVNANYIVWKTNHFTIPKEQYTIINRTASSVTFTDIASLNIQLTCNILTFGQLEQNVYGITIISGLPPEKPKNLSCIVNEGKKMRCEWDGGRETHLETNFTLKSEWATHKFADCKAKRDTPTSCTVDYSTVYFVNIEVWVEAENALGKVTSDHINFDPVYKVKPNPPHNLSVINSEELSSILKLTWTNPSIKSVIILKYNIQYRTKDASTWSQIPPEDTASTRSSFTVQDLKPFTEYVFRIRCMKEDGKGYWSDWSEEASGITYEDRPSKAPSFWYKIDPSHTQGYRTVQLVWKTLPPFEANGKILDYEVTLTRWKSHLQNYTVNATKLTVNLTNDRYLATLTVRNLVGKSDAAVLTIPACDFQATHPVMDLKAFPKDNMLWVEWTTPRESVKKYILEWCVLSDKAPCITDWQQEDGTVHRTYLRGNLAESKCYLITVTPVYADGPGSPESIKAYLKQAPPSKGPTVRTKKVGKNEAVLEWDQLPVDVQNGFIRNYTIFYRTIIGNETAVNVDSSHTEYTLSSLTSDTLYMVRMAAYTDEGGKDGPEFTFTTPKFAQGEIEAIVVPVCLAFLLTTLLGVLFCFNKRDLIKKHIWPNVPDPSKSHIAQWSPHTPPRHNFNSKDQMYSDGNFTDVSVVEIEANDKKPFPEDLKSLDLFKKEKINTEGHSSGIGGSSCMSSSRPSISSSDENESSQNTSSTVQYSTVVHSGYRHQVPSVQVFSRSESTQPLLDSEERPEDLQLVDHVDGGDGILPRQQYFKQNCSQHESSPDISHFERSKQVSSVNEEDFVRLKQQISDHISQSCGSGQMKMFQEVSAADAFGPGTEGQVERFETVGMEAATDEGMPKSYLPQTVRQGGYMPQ
# Chain of IL-27 receptor on mouse spleen cells (mouse) (O70394 25-623, chain 1 of 2): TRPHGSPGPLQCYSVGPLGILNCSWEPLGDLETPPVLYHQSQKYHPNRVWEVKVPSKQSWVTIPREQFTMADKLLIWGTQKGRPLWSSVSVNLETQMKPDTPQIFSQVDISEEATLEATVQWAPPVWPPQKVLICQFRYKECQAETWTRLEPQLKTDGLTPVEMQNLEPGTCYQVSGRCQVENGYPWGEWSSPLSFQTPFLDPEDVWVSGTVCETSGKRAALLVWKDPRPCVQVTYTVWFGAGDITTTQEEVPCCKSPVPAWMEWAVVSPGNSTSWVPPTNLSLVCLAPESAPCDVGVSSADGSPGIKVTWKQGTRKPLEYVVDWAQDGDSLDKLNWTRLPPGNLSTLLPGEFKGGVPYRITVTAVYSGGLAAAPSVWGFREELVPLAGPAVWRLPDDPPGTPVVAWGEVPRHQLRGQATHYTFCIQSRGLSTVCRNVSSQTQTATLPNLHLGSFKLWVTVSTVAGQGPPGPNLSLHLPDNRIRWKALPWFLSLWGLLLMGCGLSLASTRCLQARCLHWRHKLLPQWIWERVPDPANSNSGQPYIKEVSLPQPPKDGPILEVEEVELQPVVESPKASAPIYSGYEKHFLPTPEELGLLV
# Chain of IL-27 receptor on mouse spleen cells (mouse) (Q00560 23-917, chain 2 of 2, further chain): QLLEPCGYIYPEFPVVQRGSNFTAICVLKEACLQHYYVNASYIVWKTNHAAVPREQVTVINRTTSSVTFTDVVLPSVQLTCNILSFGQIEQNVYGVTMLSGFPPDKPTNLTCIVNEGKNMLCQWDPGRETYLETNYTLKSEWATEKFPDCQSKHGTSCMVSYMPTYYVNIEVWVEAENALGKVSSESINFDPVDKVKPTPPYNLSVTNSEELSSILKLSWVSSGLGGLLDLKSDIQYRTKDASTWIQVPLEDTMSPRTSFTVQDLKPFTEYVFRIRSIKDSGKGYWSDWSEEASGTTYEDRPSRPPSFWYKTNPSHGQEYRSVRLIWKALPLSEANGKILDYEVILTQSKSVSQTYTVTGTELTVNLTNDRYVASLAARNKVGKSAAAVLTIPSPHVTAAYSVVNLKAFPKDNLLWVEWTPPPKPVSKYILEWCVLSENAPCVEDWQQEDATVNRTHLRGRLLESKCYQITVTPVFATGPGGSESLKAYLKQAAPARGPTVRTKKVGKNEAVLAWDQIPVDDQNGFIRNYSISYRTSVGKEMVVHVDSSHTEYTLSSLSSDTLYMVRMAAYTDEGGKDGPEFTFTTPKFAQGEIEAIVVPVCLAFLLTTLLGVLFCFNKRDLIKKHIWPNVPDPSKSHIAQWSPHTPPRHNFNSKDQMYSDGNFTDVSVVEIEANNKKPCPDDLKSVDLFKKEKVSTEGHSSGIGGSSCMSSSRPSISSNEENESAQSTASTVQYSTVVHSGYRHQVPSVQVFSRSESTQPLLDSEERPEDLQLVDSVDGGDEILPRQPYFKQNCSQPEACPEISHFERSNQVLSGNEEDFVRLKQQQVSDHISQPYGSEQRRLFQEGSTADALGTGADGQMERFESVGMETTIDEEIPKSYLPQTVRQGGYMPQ
substance,measurement,setting,value
IL27RAm(mFc1): extracellular domain of mouse IL27RA fused to a wild type BALB/c mouse gamma2a constant region Fc tag (from UniProt O70394 25-510) (Fc fusion),koff,[1],0.0012 s⁻¹
same,kon,[1],1e+07 M⁻¹ s⁻¹
same,"IC50 (nM), phospho-STAT3 in mouse spleens, ligand at EC90",[2],0.18 nM
same,"IC50 (nM), phospho-STAT3 in total human PBMCs, ligand at EC90",[2],4.83 nM
same,"IL-2 concentration, 48 hr, mIL-27RA 5 ug/ml + IL-27",[2],4020 pg/mL
same,"IL-2 concentration, 48 hr, mIL-27RA 10 ug/ml + IL-27",[2],5220 pg/mL
same,"IL-2 concentration, 48 hr, mIL-27RA 10 ug/ml + IL-27 (second row)",[2],4920 pg/mL
same,"IL-2 concentration, 72 hr, mIL-27RA 5 ug/ml + IL-27",[2],5740 pg/mL
same,"IL-2 concentration, 72 hr, mIL-27RA 10 ug/ml + IL-27",[2],6700 pg/mL
same,"IL-2 concentration, 72 hr, mIL-27RA 10 ug/ml + IL-27 (second row)",[2],12200 pg/mL
same,block of the ability of mouse IL-27 to inhibit IL-2 production by naive CD4 T cells,[2],50%
same,"IC50 (nM), phospho-STAT3 in mouse spleens, ligand at EC90",[3],9.3 nM
same,"IC50 (nM), phospho-STAT3 in total human PBMCs, ligand at EC90",[3],1370 nM
human IL27RA-Fc5 fusion protein (Fc fusion),koff,[4],0.0019 s⁻¹
same,kon,[4],1e+07 M⁻¹ s⁻¹
same,koff,[5],0.0018 s⁻¹
same,kon,[5],8.1e+06 M⁻¹ s⁻¹
same,"IC50 (nM), phospho-STAT3 in mouse spleens, ligand at EC90",[2],0.14 nM
same,"IC50 (nM), phospho-STAT3 in total human PBMCs, ligand at EC90",[2],2.97 nM
same,"IL-2 concentration, 48 hr, hIL-27RA 5 ug/ml + IL-27",[2],5780 pg/mL
same,"IL-2 concentration, 48 hr, hIL-27RA 10 ug/ml + IL-27",[2],5770 pg/mL
same,"IL-2 concentration, 48 hr, hIL-27RA 10 ug/ml + IL-27 (second row)",[2],5330 pg/mL
same,"IL-2 concentration, 72 hr, hIL-27RA 5 ug/ml + IL-27",[2],1870 pg/mL
same,"IL-2 concentration, 72 hr, hIL-27RA 10 ug/ml + IL-27",[2],28600 pg/mL
same,"IL-2 concentration, 72 hr, hIL-27RA 10 ug/ml + IL-27 (second row)",[2],17500 pg/mL
same,block of the ability of mouse IL-27 to inhibit IL-2 production by naive CD4 T cells,[2],50%
same,"IC50 (nM), phospho-STAT3 in mouse spleens, ligand at EC90",[3],0.32 nM
same,"IC50 (nM), phospho-STAT3 in total human PBMCs, ligand at EC90",[3],0.95 nM
"single-chain human IL-27 (amino-terminal peptide tag, EBI3, polypeptide linker, IL-27 p28) (from UniProt Q14213 21-229; Q8NEV9 29-243) (ligand)","EC90 concentration, STAT3 phosphorylation (BIO-PLEX Phospho-Stat3 assay), total human PBMCs",[6],2 nM
same,"EC90 concentration, STAT3 phosphorylation (BIO-PLEX Phospho-Stat3 assay), mouse spleens",[7],2 nM
"single-chain mouse IL-27 (FLAG tag, mouse EBI3, 17 amino acid linker, mouse IL-27 p28) (from UniProt O35228 19-228; Q8K3I6 29-234) (ligand)",Kd,[8],0.9 nM and 1.35 nM and 1.16 nM
same,Kd,[9],1.14 nM
same,"EC90 concentration, STAT3 phosphorylation (BIO-PLEX Phospho-Stat3 assay), total human PBMCs",[6],2 nM
same,"EC90 concentration, STAT3 phosphorylation (BIO-PLEX Phospho-Stat3 assay), mouse spleens",[7],0.2 nM
